± gives the standard deviation of the averaged measurements.
Assay: total protein half-life in vivo (active degradation + dilution); higher = more stable protein
[1] = E. coli NCM3722 delta-clpP, growth: N-lim chemostat, doubling time 6 h
[2] = E. coli NCM3722 delta-lon, growth: N-lim chemostat, doubling time 6 h
[3] = E. coli NCM3722 delta-smpB, growth: N-lim chemostat, doubling time 6 h
[4] = wild type E. coli NCM3722, growth: C-lim chemostat, doubling time 3 h
[5] = wild type E. coli NCM3722, growth: N-lim chemostat, doubling time 6 h
[6] = wild type E. coli NCM3722, growth: N-lim chemostat, doubling time 12 h
[7] = wild type E. coli NCM3722, growth: C-lim chemostat, doubling time 6 h
[8] = wild type E. coli NCM3722, growth: C-lim chemostat, doubling time 12 h
[9] = wild type E. coli NCM3722, growth: P-lim chemostat, doubling time 12 h
[10] = E. coli NCM3722 delta-clpP delta-lon delta-hslV, growth: N-lim chemostat, doubling time 6 h
[11] = E. coli NCM3722 delta-hslV, growth: N-lim chemostat, doubling time 6 h
[12] = wild type E. coli NCM3722, growth: P-lim chemostat, doubling time 6 h

Row | Sequence | total protein half-life in vivo [1] [h] | total protein half-life in vivo [2] [h] | total protein half-life in vivo [3] [h] | total protein half-life in vivo [4] [h] | total protein half-life in vivo [5] [h] | total protein half-life in vivo [6] [h] | total protein half-life in vivo [7] [h] | total protein half-life in vivo [8] [h] | total protein half-life in vivo [9] [h] | total protein half-life in vivo [10] [h] | total protein half-life in vivo [11] [h] | total protein half-life in vivo [12] [h]
1 | MTPLRVFRKTTPLVNTIRLSLLPLAGLSFSAFAAQVNIAPGSLDKALNQYAAHSGFTLSVDASLTRGKQSNGLHGDYDVESGLQQLLDGSGLQVKPLGNNSWTLEPAPAPKEDALTVVGDWLGDARENDVFEHAGARDVIRREDFAKTGATTMREVLNRIPGVSAPENNGTGSHDLAMNFGIRGLNPRLASRSTVLMDGIPVPFAPYGQPQLSLAPVSLGNMDAIDVVRGGGAVRYGPQSVGGVVNFVTRAIPQDFGIEAGVEGQLSPTSSQNNPKETHNLMVGGTADNGFGTALLYSGTRGSDWREHSATRIDDLMLKSKYAPDEVHTFNSLLQYYDGEADMPGGLSRADYDADRWQSTRPYDRFWGRRKLASLGYQFQPDSQHKFNIQGFYTQTLRSGYLEQGKRITLSPRNYWVRGIEPRYSQIFMIGPSAHEVGVGYRYLNESTHEMRYYTATSSGQLPSGSSPYDRDTRSGTEAHAWYLDDKIDIGNWTITPGMRFEHIESYQNNAITGTHEEVSYNAPLPALNVLYHLTDSWNLYANTEGSFGTVQYSQIGKAVQSGNVEPEKARTWELGTRYDDGALTAEMGLFLINFNNQYDSNQTNDTVTARGKTRHTGLETQARYDLGTLTPTLDNVSIYASYAYVNAEIREKGDTYGNLVPFSPKHKGTLGVDYKPGNWTFNLNSDFQSSQFADNANTVKESADGSTGRIPGFMLWGARVAYDFGPQMADLNLAFGVKNIFDQDYFIRSYDDNNKGIYAGQPRTLYMQGSLKF | 6.44 ± 0.23 | 6.48 | > 8 | 3.66 | 5.3 ± 0.92 | > 16 | – | – | – | – | – | –
2 | MTPVKVWQERVEIPTYETGPQDIHPMFLENRVYQGSSGAVYPYGVTDTLSEQKTLKSWQAVWLENDYIKVMILPELGGRVHRAWDKVKQRDFVYHNEVIKPALVGLLGPWISGGIEFNWPQHHRPTTFMPVDFTLEAHEDGAQTVWVGETEPMHGLQVMTGFTLRPDRAALEIASRVYNGNATPRHFLWWANPAVKGGEGHQSVFPPDVTAVFDHGKRAVSAFPIATGTYYKVDYSAGVDISRYKNVPVPTSYMAEKSQYDFVGAWCHDEDGGLLHVANHHIAPGKKQWSWGHSEFGQAWDKSLTDNNGPYIELMTGIFADNQPDFTWLDAYEEKRFEQYFLPYHSLGMVQNASRDAVIKLQRSKRGIEWGLYAISPLNGYRLAIREIGKCNALLDDAVALMPATAIQGVLHGINPERLTIELSDADGNIVLSYQEHQPQALPLPDVAKAPLAAQDITSTDEAWFIGQHLEQYHHASRSPFDYYLRGVALDPLDYRCNLALAMLEYNRADFPQAVAYATQALKRAHALNKNPQCGQASLIRASAYERQGQYQQAEEDFWRAVWSGNSKAGGYYGLARLAARNGNFDAGLDFCQQSLRACPTNQEVLCLHNLLLVLSGRQDNARVQREKLLRDYPLNATLWWLNWFDGRSESALAQWRGLCQGRDVNALMTAGQLINWGMPTLAAEMLNALDCQRTLPLYLQASLLPKAERGELVAKAIDVFPQFVRFPNTLEEVAALESIEECWFARHLLACFYYNKRSYNKAIAFWQRCVEMSPEFADGWRGLAIHAWNKQHDYELAARYLDNAYQLAPQDARLLFERDLLDKLSGATPEKRLARLENNLEIALKRDDMTAELLNLWHLTGQADKAADILATRKFHPWEGGEGKVTSQFILNQLLRAWQHLDARQPQQACELLHAALHYPENLSEGRLPGQTDNDIWFWQAICANAQGDETEATRCLRLAATGDRTINIHSYYNDQPVDYLFWQGMALRLLGEQQTAQQLFSEMKQWAQEMAKTSIEADFFAVSQPDLLSLYGDLQQQHKEKCLMVAMLASAGLGEVAQYESARAELTAINPAWPKAALFTTVMPFIFNRVH | – | – | – | 3.06 ± 0.34 | – | – | 4.96 ± 0.015 | 8.56 ± 1.8 | 7.32 | – | – | –
3 | MTQFNPVDHPHRRYNPLTGQWILVSPHRAKRPWQGAQETPAKQVLPAHDPDCFLCAGNVRVTGDKNPDYTGTYVFTNDFAALMSDTPDAPESHDPLMRCQSARGTSRVICFSPDHSKTLPELSVAALTEIVKTWQEQTAELGKTYPWVQVFENKGAAMGCSNPHPHGQIWANSFLPNEAEREDRLQKEYFAEQKSPMLVDYVQRELADGSRTVVETEHWLAVVPYWAAWPFETLLLPKAHVLRITDLTDAQRSDLALALKKLTSRYDNLFQCSFPYSMGWHGAPFNGEENQHWQLHAHFYPPLLRSATVRKFMVGYEMLAETQRDLTAEQAAERLRAVSDIHFRESGV | 3.9 ± 0.27 | 5.17 ± 1 | 3.41 ± 0.41 | 3.38 ± 0.37 | 4.16 ± 0.59 | 6.05 ± 0.21 | 5.51 ± 0.28 | 12.5 ± 2.4 | 11.7 ± 0.13 | 3.59 ± 0.68 | 4.65 ± 1 | 5.52 ± 0.24
4 | MTQNIRPLPQFKYHPKPLETGAFEQDKTVECDCCEQQTSVYYSGPFYCVDEVEHLCPWCIADGSAAEKFAGSFQDDASIEGVEFEYDEEDEFAGIKNTYPDEMLKELVERTPGYHGWQQEFWLAHCGDFCVFIGYVGWNDIKDRLDEFANLEEDCENFGIRNSDLAKCLQKGGHCQGYLFRCLHCGKLRLWGDFS | – | – | – | – | – | – | – | – | – | 5.27 | – | –
5 | MTQPLFLIGPRGCGKTTVGMALADSLNRRFVDTDQWLQSQLNMTVAEIVEREEWAGFRARETAALEAVTAPSTVIATGGGIILTEFNRHFMQNNGIVVYLCAPVSVLVNRLQAAPEEDLRPTLTGKPLSEEVQEVLEERDALYREVAHIIIDATNEPSQVISEIRSALAQTINC [P0A6E1] | 5.49 ± 2.4 | 2.9 ± 0.18 | 2.42 ± 0.11 | 2.43 ± 0.067 | 2.59 ± 0.29 | 3.99 ± 0.094 | 5.25 ± 0.8 | 7.3 ± 0.53 | 8.17 ± 0.78 | 4.64 ± 0.55 | 2.62 ± 0.031 | 3.9 ± 0.047
6 | MTQTYNADAIEVLTGLEPVRRRPGMYTDTTRPNHLGQEVIDNSVDEALAGHAKRVDVILHADQSLEVIDDGRGMPVDIHPEEGVPAVELILCRLHAGGKFSNKNYQFSGGLHGVGISVVNALSKRVEVNVRRDGQVYNIAFENGEKVQDLQVVGTCGKRNTGTSVHFWPDETFFDSPRFSVSRLTHVLKAKAVLCPGVEITFKDEINNTEQRWCYQDGLNDYLAEAVNGLPTLPEKPFIGNFAGDTEAVDWALLWLPEGGELLTESYVNLIPTMQGGTHVNGLRQGLLDAMREFCEYRNILPRGVKLSAEDIWDRCAYVLSVKMQDPQFAGQTKERLSSRQCAAFVSGVVKDAFILWLNQNVQAAELLAEMAISSAQRRMRAAKKVVRKKLTSGPALPGKLADCTAQDLNRTELFLVEGDSAGGSAKQARDREYQAIMPLKGKILNTWEVSSDEVLASQEVHDISVAIGIDPDSDDLSQLRYGKICILADADSDGLHIATLLCALFVKHFRALVKHGHVYVALPPLYRIDLGKEVYYALTEEEKEGVLEQLKRKKGKPNVQRFKGLGEMNPMQLRETTLDPNTRRLVQLTIDDEDDQRTDAMMDMLLAKKRSEDRRNWLQEKGDMAEIEV | 6.09 ± 0.22 | 4.41 ± 0.076 | 3.56 ± 0.24 | 2.68 ± 0.1 | 3.79 ± 0.16 | 5.867 ± 0.054 | 4.78 ± 0.23 | 7.42 ± 0.43 | 8.4 ± 0.31 | 5.85 ± 0.4 | 5.29 ± 1.9 | 3.96 ± 0.39

Source: the supplement of paper PMC11246515
